Laboratory results from publication PMC4346921, “Identification of the Specific Interactors of the Human Lariat RNA Debranching Enzyme 1 Protein” (International Journal of Molecular Sciences, 2015).

Target: T1, GST-hDbr1 (human, UniProt Q9UK59-1 1-544)
T1 construct: human Dbr1, cDNA NM_016216 inserted into BamHI and XhoI sites of GEX-6P-1; also called GST-hDbr1 protein; recombinant Dbr1 protein fused to GST; source: E. coli BL21 (DE3) CodonPlus-RIPL, purified (Glutathione Sepharose)
T1 sequence (looked up): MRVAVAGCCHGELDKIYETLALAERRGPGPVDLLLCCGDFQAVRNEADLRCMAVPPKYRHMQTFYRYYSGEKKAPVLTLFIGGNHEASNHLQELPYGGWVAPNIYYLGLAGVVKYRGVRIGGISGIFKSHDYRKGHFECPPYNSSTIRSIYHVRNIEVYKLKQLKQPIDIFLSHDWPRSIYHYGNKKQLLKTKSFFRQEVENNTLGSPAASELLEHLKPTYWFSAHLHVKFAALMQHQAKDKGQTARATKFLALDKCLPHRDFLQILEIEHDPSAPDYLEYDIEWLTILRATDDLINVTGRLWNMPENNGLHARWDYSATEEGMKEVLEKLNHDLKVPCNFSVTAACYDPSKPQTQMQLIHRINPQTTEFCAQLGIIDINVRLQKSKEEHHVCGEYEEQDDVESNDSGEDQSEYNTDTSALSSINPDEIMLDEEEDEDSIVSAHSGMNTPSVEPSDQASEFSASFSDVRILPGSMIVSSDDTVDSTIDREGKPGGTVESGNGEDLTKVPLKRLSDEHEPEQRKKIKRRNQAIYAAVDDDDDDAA
Assay: pull-down; 2 μg purified His-tagged (T7-His) hDrn1 incubated with 5 μg GST or GST-hDbr1; bound proteins detected by Western blotting with anti-T7 tag antibody
Settings: both partners purified

B1: T7-His-hDrn1 (natural protein, human, UniProt Q69YN2-1 1-538, looked up)
chain: MAQKPLRLLACGDVEGKFDILFNRVQAIQKKSGNFDLLLCVGNFFGSTQDAEWEEYKTGIKKAPIQTYVLGANNQETVKYFQDADGCELAENITYLGRKGIFTGSSGLQIVYLSGTESLNEPVPGYSFSPKDVSSLRMMLCTTSQFKGVDILLTSPWPKCVGNFGNSSGEVDTKKCGSALVSSLATGLKPRYHFAALEKTYYERLPYRNHIILQENAQHATRFIALANVGNPEKKKYLYAFSIVPMKLMDAAELVKQPPDVTENPYRKSGQEASIGKQILAPVEESACQFFFDLNEKQGRKRSSTGRDSKSSPHPKQPRKPPQPPGPCWFCLASPEVEKHLVVNIGTHCYLALAKGGLSDDHVLILPIGHYQSVVELSAEVVEEVEKYKATLRRFFKSRGKWCVVFERNYKSHHLQLQVIPVPISCSTTDDIKDAFITQAQEQQIELLEIPEHSDIKQIAQPGAAYFYVELDTGEKLFHRIKKNFPLQFGREVLASEAILNVPDKSDWRQCQISKEDEETLARRFRKDFEPYDFTLDD
notes: Cwf19L1/hDrn1 cDNA (NM_018294), same fragment as in myc-/Flag-hDrn1, between BamHI and XhoI sites of pET-28a; pET-28a with BamHI/XhoI would place the His and T7 tags at the N-terminus (surmised); also called T7- and His-tagged hDrn1 protein; His-tagged hDrn1; source: E. coli BL21 (DE3) CodonPlus-RIPL, purified (Ni-NTA)
- binding result: binds
